Tests used:
[1] = tested on: human microvascular endothelial cells (HMECs); test: Apoptosis of serum-starved HMEC; assay type: cell-based; conditions: for cell death / protection from apoptosis, agent alone: VEGF 100 ng/ml, FGF 100 ng/ml, hScd-1ED 30 ug/ml
Experimental: FIGS. 17A-B—Competition with soluble Sdc-1 ectodomain causes enhanced apoptosis of human microvascular endothelial cells (HMECs) in the presence of FGF. (FIG. 17A) HMEC-1 cells were plated overnight on gelatin, then starved for 24 hr to induce the intrinsic pathway of apoptosis. Apoptotic cells were easily observed by DIC microscopy. Examples of apoptotic cells are denoted by black arrows, living cells by red arrows. Cells were treated with 100 ng/ml VEGF, 100 ng/ml FGF, FGF+30 ug/ml hScd-1ED or hScd-1ED alone. […] (FIG. 17B) Quantification of % protection from apoptosis by each treatment. […] VEGF has no effect on this pathway, as it affects the extrinsic pathway of apoptosis which is not induced by serum starvation.
Finally, the inventors performed used human microvascular endothelial cells (HMECs), which also express Sdc-1, as well as the αvβ3 and αvβ5 integrins, to test the theory that endothelial cells undergoing angiogenesis in response to fibroblast growth factor, a common angiogenic agent, will enter apoptosis and die unless the FGF signal is accompanied by a coordinate signal from the αvβ3 integrin. The inventors hypothesis was that recombinant ectodomain of Sdc-1 would block the signal from the αvβ3 integrin and induce apoptosis in the presence of FGF. HMEC cells grown in low serum conditions spontaneously enter apoptosis. […] In fact, treatment with FGF together with the soluble ectodomain protein induced apoptosis beyond that of the low serum condition alone (FIGS. 17A-B).

B82L fibroblasts = test: B82L cell attachment and spreading; assay type: cell-based, mouse
Excerpt: FIGS. 11A-F—Downregulation of mouse Sdc-1 expression by siRNA blocks αvβ5-dependent cell attachment and spreading on VN. FACS analysis for (FIG. 11A) mouse syndecan-1 (mAb 281.2), (FIG. 11B) αv integrin subunit (mAb H9.2B8), (FIG. 11C) mouse Syndecan-4 (mAb KY8.2), (FIG. 11D) human syndecan-1 (mAb B-B4) and (FIG. 11E) FcR^ecto-hS1 chimera (FITC-conjugated hIgG) expression against isotype IgG controls (red-fill) in vector^NEO (FIGS. 11A-C), human syndecan-1 (FIG. 11D) and FcR^ecto-hS1 (FIG. 11E) expressing B82L cells 48 h after transfection with either 600 nM control (Control) or mouse syndecan-1-specific siRNA (siRNA). (FIG. 11F) B82L^NEO empty vector-transfected control cells and B82L cells expressing human syndecan-1 or the FcR^ecto-hS1 chimera were transfected with control or mouse syndecan-1-specific siRNA and seeded on wells coated with either 5 μg/mL VN alone or a mixed substratum of VN plus 60 μg/mL of antibody directed against mouse syndecan-1 (281.2), human syndecan-1 (B-B4) or the FcR^ecto-hS1 chimera (hIgG). Cells were incubated at 37° C. for 2 h, fixed, and stained with rhodamine-conjugated phalloidin.
FIGS. 12A-B—B82L cell spreading on VN is blocked by recombinant Scd-1ED. (FIG. 12A) B82L fibroblasts were plated on 5 μg/mL VN in the absence of other treatment, or in the presence of 30 μM GST, 1-30 μM GST-mS1ED or 30 μM GST-mS4ED (inset), then fixed and stained with rhodamine-phalloidin for visualization. (FIG. 12B) Quantification of cell adhesion in triplicate samples (±S.E.) plated either with no additions, or concentrations of GST-mS1ED ranging from 0-30 μM. […]
The failure of NEO cells to engage the mixed substratum is indicative of the efficient blockade of mouse Sdc-1 expression by the siRNA. It is unlikely that the mouse Sdc-1-siRNA treatment has any non-specific cellular effects since spreading on VN is specifically rescued by the expression of full-length human Sdc-1 (hS1, FIG. 11F). Spreading of the B82L-hS1 cells is indistinguishable from parental cells. However, spreading on VN is not recovered in cells expressing the FcR^ecto-hS1 chimera—a construct in which the syndecan's ectodomain is replaced by the ectodomain of the human Fcγ receptor Ia (FcR^ecto-hS1)—regardless of whether the cells are plated on VN alone, or VN supplemented with 60 μg/mL of hIgG to engage the FcR^ecto-hS1 construct.
Recombinant Sdc-1 ectodomain competitively blocks αvβ5 integin activity. To test whether soluble Sdc-1 ectodomain will compete with the syndecan activation of the αvβ5 integrin, B82L cells were plated on 5 μg/mL VN in the presence of a recombinant GST fusion protein containing either the ectodomain of mouse Sdc-1 (GST-mS1ED) or human Sdc-1 (GST-hS1ED; data not shown).

[2] = tested on: mouse aortic endothelial cells; test: Mouse aortic endothelial cell spreading on VN; assay type: cell-based
Excerpt: Secondly, they targeted Sdc-1 expression cells using siRNA.

Molecule: VEGF [reference compound]
- cell death / protection from apoptosis, agent alone ([1]; starved 24 hr): no effect

B1: GST-hS1ED: recombinant GST fusion protein containing the ectodomain of human Sdc-1 (protein)
chain: QIVATNLPPEDQDGSGDDSDNFSGSGAGALQDITLSQQTPSTWKDTQLLTAIPTSPEPTGLEATAASTSTLPAGEGPKEGEAVVLPEVEPGLTAREQEATPRPRETTQLPTTHQASTTTATTAQEPATSHPHRDMQPGHHETSTPAGPSQADLHTPHTEDGGPSATERAAEDGASSQLPAAEGSGEQDFTFETSGENTAVVAVEPDRRNQSPVDQGATGASQGLLDRKEVLG
modifications: left off: a dimerising Fc or GST
- cell attachment and spreading on VN (B82L fibroblasts; 5 μg/mL VN, S1ED 1-30 μM, GST and GST-mS4ED 30 μM): increasing blockade
- lowest concentration tested at which competition occurs (B82L fibroblasts; cells plated on 5 μg/mL VN): 1 µM

B2: Sdc-1 ectodomain: recombinant Sdc-1 ectodomain competitor; species and fusion not stated at this place (protein)
chain: QIVATNLPPEDQDGSGDDSDNFSGSGAGALQDITLSQQTPSTWKDTQLLTAIPTSPEPTGLEATAASTSTLPAGEGPKEGEAVVLPEVEPGLTAREQEATPRPRETTQLPTTHQASTTTATTAQEPATSHPHRDMQPGHHETSTPAGPSQADLHTPHTEDGGPSATERAAEDGASSQLPAAEGSGEQDFTFETSGENTAVVAVEPDRRNQSPVDQGATGASQGLLDRKEVLG
- competitor concentration at which spreading on VN is blocked [2]: 1 µM

B3: hScd-1ED: soluble human Sdc-1 ectodomain used as competitor on HMEC cells (protein, UniProt P18827 23-254, looked up)
extracellular domain: QIVATNLPPEDQDGSGDDSDNFSGSGAGALQDITLSQQTPSTWKDTQLLTAIPTSPEPTGLEATAASTSTLPAGEGPKEGEAVVLPEVEPGLTAREQEATPRPRETTQLPTTHLASTTTATTAQEPATSHPHRDMQPGHHETSTPAGPSQADLHTPHTEDGGPSATERAAEDGASSQLPAAEGSGEQDFTFETSGENTAVVAVEPDRRNQSPVDQGATGASQGLLDRKEVLG
modifications: extracellular domain
- cell death in 15% serum ([1]; control cells in 15% serum, not shown): no effect
- apoptosis in the presence of FGF ([1]; starved 24 hr, 100 ng/ml FGF + 30 ug/ml hScd-1ED): dramatically increases apoptosis
- cell death / protection from apoptosis, agent alone ([1]; starved 24 hr): protective effect
